Assay results published in patent US20030124590A1, “Carbohydrate response element binding protein and uses thereof” (priority 2001, published 2003).
No end group written: not given here.

Key:
L-PK gene [1] = assay: Glucose-induced L-PK transcription (luciferase) in ChREBP overexpressed hepatocytes with fatty acids or AICAR; assay type: cell-based, rat; details: 27.5 mM glucose
Experimental: After a six h attachment period, hepatocytes were transfected using synthetic liposome (Lipofectamine 2000; Life Technologies) in Opti-MEM I reduced serum medium as described (Yamashita et al. Proc. Natl. Acad. Sci. USA 98, 9116-9121) and incubated for 12 h. As a control, hepatocytes were exposed to synthetic liposome in the same manner as each experimental group. […] The source of albumin for all studies was essentially fatty acid-free bovine serum albumin. Transfected cells were cultured for 12 h in culture medium containing 27.5 mM glucose plus 150 μM albumin-bound specific fatty acids or AICAR, washed twice with 2 ml Ca2+- and Mg2+-free phosphate-buffered saline, and lysed with Passive lysis buffer (Promega). Firefly luciferase and renilla (sea pansy) luciferase activities were measured sequentially using a Dual-Luciferase Reporter assay system (Promega) and a model TD-20E Luminometer (Turner Design, Sunnyvale, Calif.). After measuring the firefly luciferase signal and the renilla luciferase signal, the index of relative luciferase activity, indicating L-PK transcription activity, was calculated according to manufacturer's instructions (Promega).

L-PK gene [2] = assay: L-PK promoter luciferase reporter in ChREBP-transfected primary hepatocytes with kinase/phosphatase inhibitors or db-cAMP; details: for transcriptional activity of the L-PK gene in ChREBP-overexpressed hepatocytes: 5.5 and 27.5 mM glucose, 12 h, 10 μM H-89, 500 nM cantharidic acid, 5 μM KN-62, 30 μM PD98059, 50 μM Genistein
Experimental: Primary hepatocytes were prepared from male Sprague-Dawley rats using the collagenase (Life Technologies, Inc.) perfusion method (Berry and Friend (1969) J Cell Bio […], 506-520) and plated in collagen-coated six-well tissue culture plates (Primaria Falcon, Franklin Lakes, N.J.) at a density of 1×10^6 cells/well in glucose-free Dulbecco's modified Eagle's medium (Life Technologies, Inc.) supplemented with 100 nM dexamethasone, 10 nM insulin, 100 units/ml penicillin, 100 μg/ml streptomycin and 10% dialyzed fetal bovine serum (Life Technologies, Inc.). Following attachment, synthetic liposomes were used to transfect hepatocytes with 0.5 μg of the luciferase reporter plasmid and 0.1 μg of the internal control plasmid pRL-TK. After 14 h the media was replaced by Dulbecco's modified Eagle medium supplemented with 100 nM dexamethasone, 10 nM insulin, 10% Fetal Bovine Serum and either 10 mM lactate, 5.5 mM glucose or 27.5 mM glucose. The cells were incubated for an additional 12 h prior to determination of luciferase activity using the Dual-Luciferase Reporter Assay System (Promega).
Protein Kinase and Protein Phosphatase Inhibitors—Prior to exchange to 5.5 or 27.5 mM glucose medium, transfected primary culture hepatocytes were treated for 1 h with 10 μM H-89, 500 nM cantharidic acid (Calbiochem), 5 μM KN-62 (Calbiochem), 30 μM PD98059 (Calbiochem), 50 μM Genistein, or dimethylsulfoxide vehicle.
Rat primary cultured hepatocytes were transfected a plasmid comprising a gene encoding the wild type (WT)-ChREBP. H-89, cantharidic acid, or dimethylsulfoxide vehicle was added, and the cells were incubated in 5.5 mM (□) or 27.5 mM (▪) glucose for 12 h.
Rat primary cultured hepatocytes were transfected with wild type (WT)-ChREBP, S626A, S626D, T666A, or T666D. After transfection, the cells were incubated in 5.5 mM (□) or 27.5 mM (▪) glucose for 12 h. […] Rat primary cultured hepatocytes were transfected with wild type (WT)-ChREBP, S196A+S626A, or S196A+T666A. After transfection, cells were incubated under 5.5 mM (□) or 27.5 mM (▪) glucose, and cAMP was added both low and high glucose.

GFP-fused ChREBP = assay: Subcellular localization of GFP-fused ChREBP in primary hepatocytes (confocal microscopy); assay type: cell-based, rat; details: 12 h
Experimental: Determination of Subcellular Localization of ChREBP—Subcellular localization of GFP-fused WT-ChREBP or its mutants was determined using a confocal laser scanning microscope (Bio Rad, Hercules, Calif.). In order to quantitate nuclear localization of ChREBP, for each condition, 100 transfected hepatocytes from 5 independent experiments were scored in a blinded fashion as to whether the GFP-fused ChREBP was predominantly nuclear or cytoplasmic. The identity of the nucleus was verified by comparative phase-contrast microscopy. B. Results
Rat primary cultured hepatocytes were transfected with a plasmid comprising a gene encoding the GFP-fused wild type-ChREBP or NLS domain deletion mutants. […] The values are expressed as mean±SE. *P<0.05 compared to that of wild type-ChREBP.

[3] = target: T1, nuclear Xu-5-P activated PPase (Rattus norvegicus, UniProt P63331); assay: Protein phosphatase assay, nuclear Xu-5-P activated PPase of liver; assay type: biochemical; details: for inhibition of nuclear PPase (in words): 500 nM cantharidic acid, 300 nM deltamethrin; for Nuclear PPase activity, +Xu5P / Nuclear PPase activity, None: Mono Q purified, phosphorylated peptide as substrate; for Nuclear PPase activity, None: absence of Xu-5-P
T1 construct: from tissue; host or cells: rat liver nuclear extract, DEAE-cellulose then Mono Q
T1 sequence (P63331 whole entry): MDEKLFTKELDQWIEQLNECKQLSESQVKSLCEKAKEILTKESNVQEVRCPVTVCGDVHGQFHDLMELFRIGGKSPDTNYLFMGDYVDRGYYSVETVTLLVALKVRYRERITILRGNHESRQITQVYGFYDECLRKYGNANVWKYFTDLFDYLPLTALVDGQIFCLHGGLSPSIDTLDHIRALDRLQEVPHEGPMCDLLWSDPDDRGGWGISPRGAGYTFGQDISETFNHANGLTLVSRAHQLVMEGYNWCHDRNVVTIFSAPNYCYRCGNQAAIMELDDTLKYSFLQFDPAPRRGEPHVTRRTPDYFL
T1 sequence (P56932 whole entry partner): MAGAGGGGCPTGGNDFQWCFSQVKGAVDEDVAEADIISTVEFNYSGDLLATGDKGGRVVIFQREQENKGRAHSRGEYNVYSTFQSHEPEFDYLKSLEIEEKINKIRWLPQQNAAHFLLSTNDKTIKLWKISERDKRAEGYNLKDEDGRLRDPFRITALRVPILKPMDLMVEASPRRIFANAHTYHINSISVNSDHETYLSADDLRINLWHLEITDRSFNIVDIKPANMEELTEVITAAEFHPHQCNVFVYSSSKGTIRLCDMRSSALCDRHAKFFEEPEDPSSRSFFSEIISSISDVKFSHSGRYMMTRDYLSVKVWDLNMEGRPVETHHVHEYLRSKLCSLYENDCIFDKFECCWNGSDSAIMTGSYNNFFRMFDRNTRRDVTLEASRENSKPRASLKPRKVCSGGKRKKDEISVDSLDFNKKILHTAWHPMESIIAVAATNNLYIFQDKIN
T1 sequence (Q5XI34 1-589 partner): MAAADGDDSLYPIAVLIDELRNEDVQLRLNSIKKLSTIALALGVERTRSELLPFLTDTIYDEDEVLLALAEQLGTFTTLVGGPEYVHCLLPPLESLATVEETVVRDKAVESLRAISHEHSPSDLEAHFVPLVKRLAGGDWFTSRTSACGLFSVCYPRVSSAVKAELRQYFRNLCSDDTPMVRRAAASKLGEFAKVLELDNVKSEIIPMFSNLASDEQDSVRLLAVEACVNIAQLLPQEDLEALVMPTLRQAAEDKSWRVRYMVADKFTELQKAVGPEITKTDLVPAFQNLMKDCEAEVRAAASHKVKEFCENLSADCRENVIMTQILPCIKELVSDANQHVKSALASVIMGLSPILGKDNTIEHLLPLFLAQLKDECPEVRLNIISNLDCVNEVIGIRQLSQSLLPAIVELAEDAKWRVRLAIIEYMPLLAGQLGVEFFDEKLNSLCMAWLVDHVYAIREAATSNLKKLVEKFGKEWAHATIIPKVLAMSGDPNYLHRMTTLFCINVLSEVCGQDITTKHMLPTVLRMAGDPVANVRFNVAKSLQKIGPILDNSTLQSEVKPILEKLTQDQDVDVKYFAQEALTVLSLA
Experimental: Liver nuclear extracts were prepared as described in Example 1.
(§1) Synthetic peptides corresponding to amino acids #187-201 ([…] “P1” peptide) (SEQ ID NO:64), #556-573 ([…], “P4” peptide) (SEQ ID NO:65), and #655-674 ([…]; “P3” peptide) (SEQ ID NO:66), of ChREBP were prepared by the Peptide Synthesis Service of University of Texas Southwestern Medical Center. These peptides were phosphorylated by 10 U of PKA for 6 h at 30° C. P4 peptide corresponding to 556-573 ([…]) (SEQ ID NO:65), was phosphorylated by 10 U of AMPK for 5 h at 30° C. The reaction mixtures were passed through on a Dowex AG1X8 column (0.5 cm×5 cm) which had been equilibrated with 30% acetic acid to remove residual [^32P]-ATP. The labeled peptides in the pass through fraction were lyophilized.
(§2) Protein phosphatase activity was determined by the method of Deana et al (Deana et al. (1990) Biochem, Biophys. Acta. 1051: 199-202). The reaction mixture contained in a final volume of 50 μ1,20 mM MOPS, pH 7.0, 1 mM DTT, 25 μg of BSA, and ^32P-labeled substrate for 15 min at 30° C. The reaction was terminated by the addition of 10% trichloroacetic acid. Phosphate released was converted to a phosphomolybdic complex followed by organic solvent (isobutyl alcohol:heptane, 1:1) extraction of the complex. The reaction mixture was mixed thoroughly and centrifuged. An aliquot of the top layer was then added to 5 ml scintillation fluid and counted. One unit of protein phosphatase is defined as that amount which catalyzes the release of 1.0 μmol of ^32P/min at 30° C.
(§3) These peptides were assayed with Mono Q purified cytosolic and nuclear PPases in the presence and absence of 50 μM Xu-5-P.

[4] = target: T2, cytosolic Xu-5-P activated PPase (Rattus norvegicus, UniProt P63331); assay: Protein phosphatase assay, cytosolic Xu-5-P activated PPase of liver; assay type: biochemical; details: for inhibition of cytosolic Xu-5-P activated PPase (in words): okadaic acid 10 nM (absence and presence of Xu-5-P), cantharidic acid 500 nM, deltamethrin 300 nM; for Cytosol. PPase activity, +Xu5P / Cytosol. PPase activity, None: Mono Q purified, phosphorylated peptide as substrate; for Cytosol. PPase activity, None: absence of Xu-5-P
T2 construct: from tissue; host or cells: rat liver cytosolic extract, DEAE-cellulose then Mono Q
T2 sequence (P63331 whole entry): as the sequence (P63331 whole entry) above
T2 sequence (P56932 whole entry partner): as the sequence (P56932 whole entry partner) above
T2 sequence (Q5XI34 1-589 partner): as the sequence (Q5XI34 1-589 partner) above
Experimental: Liver was homogenized in a motor-driven Potter-Elvehjem homogenizer in 1 volume of extraction buffer containing 10 mM Hepes (pH 7.9), 10 mM KCl, 0.1 mM EDTA, 0.74 mM spermidine, 0.25 M sucrose, 50 mM imidazole, 1 mM dithiothreitol (DTT), 4 mM phenylmethanesulfonyl fluoride, and 1 mM benzamidine, and the extract was centrifuged at 10,000×g for 30 min.
as §1, §2, §3

cultured hepatocytes = assay: AMP, ADP, ATP assays in cultured hepatocytes; assay type: cell-based, rat; details: hepatocytes 12 h with 150 µM fatty acid, mean±S.E., n=4
Experimental: Hepatocytes were scraped and collected directly into 0.5 ml of ice-cold 6% (v/v) HClO4. The concentrations of ADP and ATP were determined enzymatically in the acid-extract with methods described (Kawaguchi, T., Veech, R. L., and Uyeda, K. (2001) J. Biol. Chem. 276, 28554-28561), and the cytosolic AMP was calculated by the method of Veech et al. (Veech, R. L., Lawson, J. W., Cornell, N. W., and Krebs, H. A. (1979) J. Biol. Chem. 254, 6538-6547).
Values are expressed as mean±S.E. (n=4).

[5] = target: ChREBP (Carbohydrate Response Element Binding Protein) from rat liver (rat) (UniProt Q8VIP2); assay: cell-based or functional assay
Sequence of ChREBP (Carbohydrate Response Element Binding Protein) from rat liver (rat) (Q8VIP2 whole entry): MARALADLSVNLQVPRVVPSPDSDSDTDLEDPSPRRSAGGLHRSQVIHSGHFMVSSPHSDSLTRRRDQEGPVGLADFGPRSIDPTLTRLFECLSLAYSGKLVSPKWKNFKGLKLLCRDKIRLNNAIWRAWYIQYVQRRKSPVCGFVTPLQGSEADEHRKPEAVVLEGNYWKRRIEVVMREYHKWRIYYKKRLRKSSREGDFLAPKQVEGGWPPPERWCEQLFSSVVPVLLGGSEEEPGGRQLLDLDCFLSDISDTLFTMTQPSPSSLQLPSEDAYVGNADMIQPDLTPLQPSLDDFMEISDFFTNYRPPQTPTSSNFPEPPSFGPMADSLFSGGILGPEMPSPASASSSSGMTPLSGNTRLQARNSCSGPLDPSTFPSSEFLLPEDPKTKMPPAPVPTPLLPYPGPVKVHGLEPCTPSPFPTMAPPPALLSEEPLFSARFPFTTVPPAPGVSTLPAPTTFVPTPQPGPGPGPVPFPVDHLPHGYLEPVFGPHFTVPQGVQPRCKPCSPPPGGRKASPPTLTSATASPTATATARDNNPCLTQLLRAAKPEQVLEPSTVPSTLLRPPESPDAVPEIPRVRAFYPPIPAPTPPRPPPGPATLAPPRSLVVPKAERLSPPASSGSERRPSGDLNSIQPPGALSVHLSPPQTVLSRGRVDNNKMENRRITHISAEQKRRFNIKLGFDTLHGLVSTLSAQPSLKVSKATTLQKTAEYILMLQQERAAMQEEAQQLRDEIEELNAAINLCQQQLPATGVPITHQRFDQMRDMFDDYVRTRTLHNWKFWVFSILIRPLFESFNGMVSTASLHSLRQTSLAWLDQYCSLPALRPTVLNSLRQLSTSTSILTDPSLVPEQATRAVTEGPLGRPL

[6] = test system: T3, P3 peptide of ChREBP (amino acids #655-674), phosphorylated by PKA
T3 sequence: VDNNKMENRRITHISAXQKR

[7] = test system: T4, P4 peptide of ChREBP (amino acids #556-573), phosphorylated by AMPK
T4 sequence: STVPSTLLRPPESPDAVP

[8] = test system: T5, P1 peptide of ChREBP (amino acids #187-201), phosphorylated by PKA
T5 sequence: YYKKRLRKSSREGDF

[9] = Mono Q purified enzyme, 50 μM Xu-5-P

NC(=O)c1ncn([C@@H]2O[C@H](COP(=O)(O)O)[C@@H](O)[C@H]2O)c1N [AICAR, 5-amino-4-imidazolecarboxamide ribotide]
inhibition of glucose activation of L-PK gene transcription (L-PK gene [1]; AICAR 50 μM): approximately 80% | inhibition of glucose activation of L-PK gene transcription (L-PK gene [1]; AICAR 200 μM): over 90%

O=c1c(-c2ccc(O)cc2)coc2cc(O)cc(O)c12 [Genistein]
transcriptional activity of the L-PK gene in ChREBP-overexpressed hepatocytes (L-PK gene [2]): did not affect

O=S(=O)(NCCNC/C=C/c1ccc(Br)cc1)c1cccc2cnccc12 [H-89]
nuclear staining rate of GFP-fused ChREBP (GFP-fused ChREBP; 5.5 mM glucose, 10 μM H-89): increased | effect on endogenous ChREBP (L-PK transcriptional activity) (L-PK gene [2]; 10 μM H-89, hepatocytes without ChREBP overexpression): stimulated | transcriptional activity of the L-PK gene in ChREBP-overexpressed hepatocytes (L-PK gene [2]): increased

CN([C@@H](Cc1ccc(OS(=O)(=O)c2cccc3cnccc23)cc1)C(=O)N1CCN(c2ccccc2)CC1)S(=O)(=O)c1cccc2cnccc12 [KN-62]
transcriptional activity of the L-PK gene in ChREBP-overexpressed hepatocytes (L-PK gene [2]): did not affect

COc1cccc(-c2cc(=O)c3ccccc3o2)c1N [PD98059]
transcriptional activity of the L-PK gene in ChREBP-overexpressed hepatocytes (L-PK gene [2]): did not affect

O=C(CO)[C@@H](O)[C@H](O)COP(=O)(O)O [Xu-5-P]
extent of activation of nuclear PPase by Xu-5-P [3, 9]: 1.8 fold | activation of nuclear PPase, P3 peptide substrate ([3]; crude nuclear extract, added Xu-5-P): activated | activation of nuclear PPase, P4 peptide substrate ([3]; nuclear extract): activated | extent of activation of cytosolic PPase by Xu-5-P [4, 9]: 1.8 fold | activation of P1 dephosphorylation by PPase of desalted cytosolic liver extract ([4]; only metabolite among glycolysis and pentose shunt intermediates examined): able to activate

CC(=O)O [acetate]
AMP (cultured hepatocytes): 910 ± 87 nmol/g cells

CC1(C(=O)O)C2CCC(O2)C1(C)C(=O)O (centres unmarked) [cantharidic acid]
inhibition of nuclear PPase (in words) [3]: completely inhibited | nuclear staining rate of GFP-fused ChREBP (GFP-fused ChREBP; 500 nM cantharidic acid, 5.5 or 27.5 mM glucose): significantly decreased | inhibition of cytosolic Xu-5-P activated PPase (in words) [4]: completely | transcriptional activity of the L-PK gene in ChREBP-overexpressed hepatocytes (L-PK gene [2]): inhibited

CC1(C)[C@H](C(=O)O[C@H](C#N)c2cccc(Oc3ccccc3)c2)[C@@H]1C=C(Br)Br [deltamethrin]
inhibition of nuclear PPase (in words) [3]: not affected | inhibition of cytosolic Xu-5-P activated PPase (in words) [4]: did not affect

P1 peptide: synthetic peptide, amino acids #187-201 of ChREBP, YYKKRLRKSSREGDF, phosphorylated by PKA (also: phosphorylated by PKA, site not given here)
Nuclear PPase activity, +Xu5P ([3]; 50 μM Xu-5-P): 0.93 units/mg | Nuclear PPase activity, None [3]: 0.55 units/mg | Cytosol. PPase activity, +Xu5P ([4]; 50 μM Xu-5-P): 11.2 units/mg | Cytosol. PPase activity, None [4]: 6.2 units/mg

P3 peptide: synthetic peptide, amino acids #655-674 of ChREBP, VDNNKMENRRITHISAEQKR, phosphorylated by PKA (also: phosphorylated by PKA, site not given here)
Nuclear PPase activity, +Xu5P ([3]; 50 μM Xu-5-P): 0.94 units/mg | Nuclear PPase activity, None [3]: 0.52 units/mg | Cytosol. PPase activity, +Xu5P ([4]; 50 μM Xu-5-P): 11.0 units/mg | Cytosol. PPase activity, None [4]: 6.0 units/mg

catalytic subunit of cAMP-dependent protein kinase (PKA) (enzyme)
reduction in DNA-binding activity of ChREBP after phosphorylation (gel shift) [5]: 90%

cytosolic Xu-5-P activated PPase (Mono Q purified, rat liver)
PPase activity (units/mg), +Xu5P (50 µM) [6]: 11 units/mg | PPase activity (units/mg), no Xu-5-P [6]: 6 units/mg | PPase activity (units/mg), +Xu5P (50 µM) [7]: 8.8 units/mg | PPase activity (units/mg), no Xu-5-P [7]: 5.2 units/mg | PPase activity (units/mg), +Xu5P (50 µM) [8]: 11.2 units/mg | PPase activity (units/mg), no Xu-5-P [8]: 6.2 units/mg

nuclear Xu-5-P activated PPase (Mono Q purified, rat liver)
PPase activity (units/mg), +Xu5P (50 µM) [6]: 0.94 units/mg | PPase activity (units/mg), no Xu-5-P [6]: 0.52 units/mg | PPase activity (units/mg), +Xu5P (50 µM) [7]: 0.67 units/mg | PPase activity (units/mg), no Xu-5-P [7]: 0.39 units/mg | PPase activity (units/mg), +Xu5P (50 µM) [8]: 0.93 units/mg | PPase activity (units/mg), no Xu-5-P [8]: 0.55 units/mg
